One data set has as its target T1, human GLP-1 receptor (Homo sapiens, UniProt P43220).
T1 construct: expressed in transfected cells; host or cells: CHO K1 (CHO 6CRE GLP1R)
The data set can be described thus: GLP-1 receptor assay, CHO 6CRE GLP1R cells, luciferase reporter (384-well, STEADY GLO). It is filed as cell-based. As to the method:
Background: GLP-1R is a 7TM G-protein coupled receptor which is expressed on CHO cells. […] CHO cells are stably transfected with the 6CRE/luc reporter gene. […] This then catalyses a reaction with luciferin to produce light which can be measured on a luminometer.
Suspension culture was maintained for forty-eight hours. Cells were then diluted into 15 mM HEPES, 2 mM L glutamine (2.5×10^5 cells/ml) and dispensed into 384-well plates containing 10 ul/well of the compound to be assayed. After the addition of assay controls, plates were returned to the incubator for 3h at 37° C. and 5% CO2. […] Plates were placed in the reader (Packard TopCount) and pre-incubated for 5 minutes prior to reading […] and plotting of results. Compound was assayed at a range of concentrations response curve to be fitted from which pC50s were calculated.

The test system of data set [1] is natural protease acting in E. coli cells. The data set can be described thus: Integrity after expression in E. coli (non reducing SDS-PAGE, mass spectrometry, Edman sequencing). Particulars: MS and Edman sequencing. Here is the method:
Expression was performed by inoculation of a 50 milliliter culture of 2×TY media supplemented with OVERNIGHT EXPRESS™ autoinduction solutions (1 milliliter of Solution 1 (Cat. No. 71298), 2.5 milliliters of Solution 2 (Cat. No. 71299), 50 microliters of Solution 3 (Cat. No 71304), Novagen) and 100 microgram per milliliter of carbenicillin. Culture was carried overnight at 37° C., and then the culture supernatant was clarified by centrifugation at 3700×g for 45 minutes. The expressed protein was then purified from the clarified supernatant using PROTEIN L STREAMLINE™ (GE Healthcare, Cat. No. 28-4058-03, protein L coupled), and eluted from the Protein L using 0.1M glycine pH 2.0, then neutralized using 0.2 volumes of 1M Tris pH 8.0.
After the plasmid DNA pDOM35 comprising sequence of DMS7161 was transformed into BL21(DE3), glycerol stock was prepared from grown colonies, by scraping colonies into minimal media with glucose and addition of glycerol, final conentration of approximately 15%. Expression of DMS7161 was started by inoculation of the glycerol into 50 milliliters of minimal media (DMS7161 A) supplemented in Yeast Extract for final concentration 10 g/liter (DMS7161 B) so as to obtain the starting culture density of OD600=0.024. The culture was grown to OD600 of approximately 1.4 at 30° C., then induced by the addition of 0.1 mM isopropyl-beta-d-thiogalactoside. […]

Data set [2] has as its target T2, GLP-1 receptor (CHO 6CRE GLP1R cells) (Homo sapiens, UniProt P43220).
T2 construct: expressed in transfected cells; host or cells: CHO 6CRE GLP1R cells (CHO K1)
The data set can be described thus: GLP-1 assay, CHO 6CRE GLP1R cells, luciferase reporter (96-well, BRIGHT-GLO). The class given is cell-based.

Substitutions are numbered along the chain they refer to.

T1 sequence (P43220 24-463): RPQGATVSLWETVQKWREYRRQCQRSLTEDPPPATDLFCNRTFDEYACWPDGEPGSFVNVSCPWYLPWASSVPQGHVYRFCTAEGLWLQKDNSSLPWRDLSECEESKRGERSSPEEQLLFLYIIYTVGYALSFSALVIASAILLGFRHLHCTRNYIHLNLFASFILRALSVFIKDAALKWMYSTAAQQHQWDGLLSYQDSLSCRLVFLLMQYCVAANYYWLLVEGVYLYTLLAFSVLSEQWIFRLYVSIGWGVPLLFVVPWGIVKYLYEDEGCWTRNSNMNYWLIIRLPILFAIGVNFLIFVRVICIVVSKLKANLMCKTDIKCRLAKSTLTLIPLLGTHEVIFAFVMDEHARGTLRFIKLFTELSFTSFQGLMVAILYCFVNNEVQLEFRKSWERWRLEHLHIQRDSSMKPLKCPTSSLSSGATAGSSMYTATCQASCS
T2 sequence (P43220 24-463): as above

B1: DMS7148: *GLP-1 variant (W25-D mutation) fused to ALBUDAB DOM7h-14 by PSS linker; SEQ ID NO: 16 (protein)
chain: HGEGTFTSDVSSYLEGQAAKEFIADLVEGRGPSSDIQMTQSPSSLSASVGDRVTITCRASQWIGSQLSWYQQKPGKAPKLLIMWRSSLQSGVPSRFSGSGSGTDFTLTISSLQPEDFATYYCAQGAALPRTFGQGTKVEIKR
modifications: Source Amino acid sequence of DMS7148 domain antibody made using molecular biology techniques.
With B1, the “% max response” value in the data set with human GLP-1 receptor (CHO 6CRE GLP1R cells, 3h at 37° C.) was 107%. For the same molecule, the “activity in GLP-1 receptor assay compared with GLP-1 peptide” value in the data set with human GLP-1 receptor (FIG. 6) is “active, however less active than GLP-1 peptide”. Besides, in data set [1], the “integrity / degradation on expression in E. coli” value is “well expressed in E. coli with the majority of material migrating at the expected size”.

B2: DMS7161: *GLP-1 variant of DMS7148 fused to DOM7h-14-10 by PSS linker; A = minimal media, B = with Yeast Extract (protein)
chain: B1 chain with A126L, A127R, L128H, R130K
modifications: Source Amino acid sequence of DMS7161 domain antibody made using molecular biology techniques.
notes: *GLP-1 variant of DMS7148 fused to DOM7h-14-10 by PSS linker; A = minimal media, B = with Yeast Extract
On to B2, for which the “integrity / degradation on expression in E. coli” value in data set [1] is “well expressed in E. coli with the majority of material migrating at the expected size”. Moreover, in data set [2], the “activity compared with DMS7148” value was “as active as DMS7148”.
